The numbers were not newly measured in PMC9255719, which cites them from elsewhere.

Several values for one entry are separate records, joined by “and”; a condition that tells them apart may be missing. Identical values can stand only once. Like-named read-outs stand apart in the source and are kept apart here. Some results are limits rather than exact numbers.

Data set [1] deals with FcRn (Rattus norvegicus) (UniProt P13599).
Data set [2] addresses FcRn (Homo sapiens) (UniProt P55899).
The target of data set [3] is FcRn (Rattus norvegicus) (UniProt P13599). This is another data set of the same source.
Data set [4] addresses Albumin-Alexa 568 conjugate (4:1) (UniProt P02770). Nature of the data set: not stated in this review (data reproduced from ref [155]). The note with it: pH 6; not stated (pH 6 and pH 7.4).
For data set [5], the target named is Albumin-Alexa 647 maleimide conjugate (1:1) (UniProt P02770). The description is as above. Conditions: pH 6; not stated (pH 6 and pH 7.4).
For data set [6], the target named is Albumin-CF-594 maleimide conjugate (dye:albumin 1:3) (UniProt P02770). Described as above. Conditions: pH 6; not stated (pH 6 and pH 7.4).
The target of data set [7] is Albumin-Texas Red conjugate (1:1) (UniProt P02770). The description is as above. Conditions: not stated (pH 6 and pH 7.4).
For data set [8], the target named is Albumin-Texas Red-X conjugate (1:1) (UniProt P02770). Described as above. Conditions: pH 6; not stated (pH 6 and pH 7.4).
The target in data set [9] is Albumin-Texas Red-X conjugate (2:1) (UniProt P02770). Described as above. The note with it: pH 6; not stated (pH 6 and pH 7.4).
The target of data set [10] is Albumin-Texas Red-X conjugate (4:1) (UniProt P02770). Described as above. Conditions: pH 6; not stated (pH 6 and pH 7.4).
For data set [11], the target named is Albumin-Texas Red-X conjugate (5:1) (UniProt P02770). The data set is described as above. The note with it: pH 6; not stated (pH 6 and pH 7.4).
In data set [12] the target is Albumin-fluorescein conjugate (6.4:1) (UniProt P02770). Described as above. The note with it: not stated (pH 6 and pH 7.4).
The target of data set [13] is Serum albumin, unlabelled ('No dye') (UniProt P02770). The description is as above. The note with it: not stated (pH 6 and pH 7.4).
For data set [14], the target named is FcRn (Rattus norvegicus) (UniProt P13599). The source holds these as a separate data set.
Data set [15] has the same target. The source holds these as a separate data set.
Data set [16] has as its target FcRn (Homo sapiens) (UniProt P55899). This is another data set of the same source.
The target of data set [17] is FcRn (Rattus norvegicus) (UniProt P13599). This is another data set of the same source.
For data set [18] the target is unchanged. This is another data set of the same source.
For data set [19] the target is unchanged. The source holds these as a separate data set.
Data set [20] has the same target. This is another data set of the same source.
For data set [21] the target is unchanged. The source holds these as a separate data set.
For data set [22] the target is unchanged. This is another data set of the same source.
The target is the same in data set [23]. The source holds these as a separate data set.
Data set [24] has the same target. This is another data set of the same source.
Data set [25] has the same target. The source holds these as a separate data set.
For the next data set, the target named is cubilin (UniProt O60494).
Chain of UniProt O60494 (O60494 36-3623): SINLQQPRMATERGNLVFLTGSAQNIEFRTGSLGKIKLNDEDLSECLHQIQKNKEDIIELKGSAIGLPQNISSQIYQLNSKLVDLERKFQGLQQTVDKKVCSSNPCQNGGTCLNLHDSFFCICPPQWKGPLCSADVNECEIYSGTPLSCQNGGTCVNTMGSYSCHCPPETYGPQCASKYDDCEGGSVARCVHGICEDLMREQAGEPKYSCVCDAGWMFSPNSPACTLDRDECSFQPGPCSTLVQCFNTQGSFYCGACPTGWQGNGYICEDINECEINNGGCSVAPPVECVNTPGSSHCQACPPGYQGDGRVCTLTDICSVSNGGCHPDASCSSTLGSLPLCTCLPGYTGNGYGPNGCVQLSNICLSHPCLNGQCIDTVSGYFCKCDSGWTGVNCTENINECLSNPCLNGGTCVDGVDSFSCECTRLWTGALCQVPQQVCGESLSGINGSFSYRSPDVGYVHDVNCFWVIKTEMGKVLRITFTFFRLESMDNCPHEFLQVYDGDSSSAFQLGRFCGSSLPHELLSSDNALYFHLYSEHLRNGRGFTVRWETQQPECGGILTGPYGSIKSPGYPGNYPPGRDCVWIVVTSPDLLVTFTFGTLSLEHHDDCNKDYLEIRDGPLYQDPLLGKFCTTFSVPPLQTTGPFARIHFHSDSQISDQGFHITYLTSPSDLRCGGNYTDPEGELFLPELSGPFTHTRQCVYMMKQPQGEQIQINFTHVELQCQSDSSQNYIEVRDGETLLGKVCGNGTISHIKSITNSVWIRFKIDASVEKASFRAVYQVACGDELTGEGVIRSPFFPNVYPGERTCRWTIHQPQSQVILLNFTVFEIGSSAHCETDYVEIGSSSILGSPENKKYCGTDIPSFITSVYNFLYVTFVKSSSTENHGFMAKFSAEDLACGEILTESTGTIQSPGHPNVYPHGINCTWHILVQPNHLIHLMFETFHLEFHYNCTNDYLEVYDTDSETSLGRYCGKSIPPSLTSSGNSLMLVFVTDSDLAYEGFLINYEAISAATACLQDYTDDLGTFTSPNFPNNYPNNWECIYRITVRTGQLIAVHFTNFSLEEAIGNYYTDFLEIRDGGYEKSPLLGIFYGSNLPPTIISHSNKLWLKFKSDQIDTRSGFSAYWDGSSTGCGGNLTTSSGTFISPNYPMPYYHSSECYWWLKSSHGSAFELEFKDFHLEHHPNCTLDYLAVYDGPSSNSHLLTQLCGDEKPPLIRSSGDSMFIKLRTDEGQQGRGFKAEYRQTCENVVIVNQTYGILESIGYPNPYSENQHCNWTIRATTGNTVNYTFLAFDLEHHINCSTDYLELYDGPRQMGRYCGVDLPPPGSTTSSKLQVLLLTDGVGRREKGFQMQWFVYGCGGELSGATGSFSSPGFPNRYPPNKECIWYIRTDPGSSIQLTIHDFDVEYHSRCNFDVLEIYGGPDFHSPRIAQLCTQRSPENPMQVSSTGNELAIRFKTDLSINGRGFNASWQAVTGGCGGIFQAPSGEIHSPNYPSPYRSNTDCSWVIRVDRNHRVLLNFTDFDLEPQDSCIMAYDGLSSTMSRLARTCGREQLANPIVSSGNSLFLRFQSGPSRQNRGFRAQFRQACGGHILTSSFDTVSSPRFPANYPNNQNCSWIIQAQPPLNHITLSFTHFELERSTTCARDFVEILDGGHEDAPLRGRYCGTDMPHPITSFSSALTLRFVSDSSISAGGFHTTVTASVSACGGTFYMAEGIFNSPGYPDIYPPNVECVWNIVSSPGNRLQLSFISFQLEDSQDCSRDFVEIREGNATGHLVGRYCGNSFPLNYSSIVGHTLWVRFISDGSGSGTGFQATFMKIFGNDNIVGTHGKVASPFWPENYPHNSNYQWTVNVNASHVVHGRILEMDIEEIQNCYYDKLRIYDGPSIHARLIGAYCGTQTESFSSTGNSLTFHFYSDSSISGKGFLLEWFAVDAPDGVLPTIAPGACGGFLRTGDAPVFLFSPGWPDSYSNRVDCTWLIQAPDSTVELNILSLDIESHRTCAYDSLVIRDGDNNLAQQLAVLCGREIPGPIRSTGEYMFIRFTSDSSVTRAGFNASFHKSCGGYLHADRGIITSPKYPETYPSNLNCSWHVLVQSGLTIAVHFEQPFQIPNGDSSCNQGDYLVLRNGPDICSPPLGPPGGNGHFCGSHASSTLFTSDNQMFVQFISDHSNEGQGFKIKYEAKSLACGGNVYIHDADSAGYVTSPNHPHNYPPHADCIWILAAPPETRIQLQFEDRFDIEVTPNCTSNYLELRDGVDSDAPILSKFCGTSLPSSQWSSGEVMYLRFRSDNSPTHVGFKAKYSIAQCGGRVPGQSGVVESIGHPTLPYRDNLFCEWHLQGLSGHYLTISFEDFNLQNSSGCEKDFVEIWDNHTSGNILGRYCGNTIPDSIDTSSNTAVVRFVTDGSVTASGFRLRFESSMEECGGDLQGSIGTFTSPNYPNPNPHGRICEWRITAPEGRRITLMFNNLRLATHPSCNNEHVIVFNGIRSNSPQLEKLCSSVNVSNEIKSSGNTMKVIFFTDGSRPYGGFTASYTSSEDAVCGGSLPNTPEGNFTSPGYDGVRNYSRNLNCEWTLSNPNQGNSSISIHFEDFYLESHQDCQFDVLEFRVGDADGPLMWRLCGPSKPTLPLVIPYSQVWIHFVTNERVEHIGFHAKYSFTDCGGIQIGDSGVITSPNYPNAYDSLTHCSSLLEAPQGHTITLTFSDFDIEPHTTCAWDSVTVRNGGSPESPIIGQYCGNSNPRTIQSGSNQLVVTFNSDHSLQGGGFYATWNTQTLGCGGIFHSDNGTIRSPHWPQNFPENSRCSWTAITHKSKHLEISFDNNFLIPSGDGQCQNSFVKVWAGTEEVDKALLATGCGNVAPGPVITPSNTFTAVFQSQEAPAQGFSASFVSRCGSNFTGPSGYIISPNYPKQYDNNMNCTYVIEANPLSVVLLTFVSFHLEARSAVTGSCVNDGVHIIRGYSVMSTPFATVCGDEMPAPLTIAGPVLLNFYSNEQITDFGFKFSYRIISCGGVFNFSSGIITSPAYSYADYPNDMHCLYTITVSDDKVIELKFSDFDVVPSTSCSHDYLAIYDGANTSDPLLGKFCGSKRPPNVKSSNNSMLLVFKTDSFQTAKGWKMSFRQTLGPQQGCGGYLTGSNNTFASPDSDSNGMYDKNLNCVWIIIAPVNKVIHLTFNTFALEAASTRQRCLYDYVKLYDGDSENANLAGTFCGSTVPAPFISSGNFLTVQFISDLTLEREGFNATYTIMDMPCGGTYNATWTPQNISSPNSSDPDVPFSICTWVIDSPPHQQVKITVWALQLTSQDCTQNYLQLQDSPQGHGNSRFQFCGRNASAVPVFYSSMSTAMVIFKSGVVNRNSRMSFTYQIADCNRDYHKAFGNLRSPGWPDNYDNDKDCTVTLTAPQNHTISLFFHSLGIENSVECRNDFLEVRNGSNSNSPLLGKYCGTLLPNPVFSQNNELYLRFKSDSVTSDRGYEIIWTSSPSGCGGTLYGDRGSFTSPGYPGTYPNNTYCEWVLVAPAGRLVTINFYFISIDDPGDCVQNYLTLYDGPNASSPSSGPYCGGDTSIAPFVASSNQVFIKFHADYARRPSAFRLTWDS
The target of data set [26] is FcRn (Rattus norvegicus) (UniProt P13599). This is another data set of the same source.

Chain of UniProt P13599 (P13599 23-298): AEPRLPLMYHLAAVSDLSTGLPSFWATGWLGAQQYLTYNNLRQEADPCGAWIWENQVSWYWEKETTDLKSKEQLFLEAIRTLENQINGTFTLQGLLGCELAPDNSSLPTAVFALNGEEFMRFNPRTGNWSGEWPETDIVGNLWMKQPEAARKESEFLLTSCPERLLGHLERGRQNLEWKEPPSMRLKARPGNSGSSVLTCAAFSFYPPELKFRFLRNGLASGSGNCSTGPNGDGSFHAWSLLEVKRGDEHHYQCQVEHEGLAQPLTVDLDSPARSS
Chain of UniProt P55899 (P55899 24-297): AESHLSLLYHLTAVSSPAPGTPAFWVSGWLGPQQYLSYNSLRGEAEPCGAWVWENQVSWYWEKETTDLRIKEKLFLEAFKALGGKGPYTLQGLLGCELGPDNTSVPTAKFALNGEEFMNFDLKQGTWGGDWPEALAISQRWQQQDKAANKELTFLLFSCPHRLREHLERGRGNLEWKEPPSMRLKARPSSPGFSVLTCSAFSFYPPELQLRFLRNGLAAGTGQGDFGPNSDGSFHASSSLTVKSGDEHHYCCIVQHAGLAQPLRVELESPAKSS

Consider albumin (from UniProt P07724), for which the Kd with FcRn (Rattus norvegicus) [1] was over 100 µM.

For albumin (from UniProt P08835), the Kd was over 50 µM with FcRn (Homo sapiens) [2] and over 100 µM in the data set with FcRn (Rattus norvegicus) [3].

As for “Neonatal Fc receptor (FcRn), rat (rFcRn)”, the Kd in [4] was 17 µM; in data set [5], 11 µM; in [6], 1.5 µM; in [7] (pH 6), 6 µM; in data set [7] (pH 7.4) it was 11 µM; in [8], 5.4 µM. Moreover, the Kd in data set [9] was 10 µM; in data set [10], over 40 µM; in [11] it was over 100 µM; in [12] (pH 6) it was 69 µM; in [12] (pH 7.4), 1 µM; in [13] (pH 6), 11.6 µM. Also, the Kd in data set [13] (pH 7.4) was over 100 µM.

Consider albumin (from UniProt P49065), for which the Kd in the data set with FcRn (Rattus norvegicus) [14] was 11.8 µM.

For the substance albumin (from UniProt P02770), the Kd with FcRn (Rattus norvegicus) [15] was 11 µM and 6 µM; with FcRn (Homo sapiens) [16], 1.1 µM; in the data set with FcRn (Rattus norvegicus) [17], 11.6 µM; in the data set with FcRn (Rattus norvegicus) [18], over 100 µM; with FcRn (Rattus norvegicus) [19], 1.5 µM; in the data set with FcRn (Rattus norvegicus) [20] it was 17 µM. For the same substance, the Kd with FcRn (Rattus norvegicus) [21] is over 40 µM; with FcRn (Rattus norvegicus) [22], 10 µM; in the data set with FcRn (Rattus norvegicus) [23] it was 5.4 µM.

With albumin (from UniProt P02769), the Kd with FcRn (Rattus norvegicus) [24] was over 100 µM.

Take albumin (from UniProt P14639): in the data set with FcRn (Rattus norvegicus) [25], the Kd is over 100 µM.

Turning to albumin (from UniProt P02768), the results for the Kd with cubilin and with FcRn (Rattus norvegicus) [26] were 0.63 µM and over 100 µM, respectively.

Usually Kd stands for the constant that tells how readily two partners part at equilibrium.
